Patent US20250326865A1, “C-MET PROTEIN-BINDING PEPTIDE COMPLEX” (PeptiDream Inc., priority 2021, published 2025)
Starred links: 1 amine or outer side, 2 acyl side, 3 side chain; linkers in the order of their positions; H or OH if unused. Positions of bridges follow the written chain, without caps; N, C: chain ends. Non-standard residues stand in square brackets, D forms with d. Residues, ends and D or L forms follow the SMILES beside them. Primed or numbered codes have the meaning given here. Chains are numbered I, II in the order given. No end group written: not given here. CO(CH2CH2O)9CH2CH2CO = O=C(CCOCCOCCOCCOCCOCCOCCOCCOCCOCCC(=O)[*:2])[*:1]; PEG12 = NCCOCCOCCOCCOCCOCCOCCOCCOCCOCCOCCOCCOCCC(=O)O; NMeF = CN[C@@H](Cc1ccccc1)C(=O)O; Ahp(2) = CCCCC[C@H](N)C(=O)O; NMeC = CN[C@@H](CS)C(=O)O; Ahp′ = not defined here

Target: T1, c-Met (Homo sapiens, UniProt P08581)
T1 construct: endogenous in cells; host or cells: A431 (human)
T1 sequence (P08581 25-1390): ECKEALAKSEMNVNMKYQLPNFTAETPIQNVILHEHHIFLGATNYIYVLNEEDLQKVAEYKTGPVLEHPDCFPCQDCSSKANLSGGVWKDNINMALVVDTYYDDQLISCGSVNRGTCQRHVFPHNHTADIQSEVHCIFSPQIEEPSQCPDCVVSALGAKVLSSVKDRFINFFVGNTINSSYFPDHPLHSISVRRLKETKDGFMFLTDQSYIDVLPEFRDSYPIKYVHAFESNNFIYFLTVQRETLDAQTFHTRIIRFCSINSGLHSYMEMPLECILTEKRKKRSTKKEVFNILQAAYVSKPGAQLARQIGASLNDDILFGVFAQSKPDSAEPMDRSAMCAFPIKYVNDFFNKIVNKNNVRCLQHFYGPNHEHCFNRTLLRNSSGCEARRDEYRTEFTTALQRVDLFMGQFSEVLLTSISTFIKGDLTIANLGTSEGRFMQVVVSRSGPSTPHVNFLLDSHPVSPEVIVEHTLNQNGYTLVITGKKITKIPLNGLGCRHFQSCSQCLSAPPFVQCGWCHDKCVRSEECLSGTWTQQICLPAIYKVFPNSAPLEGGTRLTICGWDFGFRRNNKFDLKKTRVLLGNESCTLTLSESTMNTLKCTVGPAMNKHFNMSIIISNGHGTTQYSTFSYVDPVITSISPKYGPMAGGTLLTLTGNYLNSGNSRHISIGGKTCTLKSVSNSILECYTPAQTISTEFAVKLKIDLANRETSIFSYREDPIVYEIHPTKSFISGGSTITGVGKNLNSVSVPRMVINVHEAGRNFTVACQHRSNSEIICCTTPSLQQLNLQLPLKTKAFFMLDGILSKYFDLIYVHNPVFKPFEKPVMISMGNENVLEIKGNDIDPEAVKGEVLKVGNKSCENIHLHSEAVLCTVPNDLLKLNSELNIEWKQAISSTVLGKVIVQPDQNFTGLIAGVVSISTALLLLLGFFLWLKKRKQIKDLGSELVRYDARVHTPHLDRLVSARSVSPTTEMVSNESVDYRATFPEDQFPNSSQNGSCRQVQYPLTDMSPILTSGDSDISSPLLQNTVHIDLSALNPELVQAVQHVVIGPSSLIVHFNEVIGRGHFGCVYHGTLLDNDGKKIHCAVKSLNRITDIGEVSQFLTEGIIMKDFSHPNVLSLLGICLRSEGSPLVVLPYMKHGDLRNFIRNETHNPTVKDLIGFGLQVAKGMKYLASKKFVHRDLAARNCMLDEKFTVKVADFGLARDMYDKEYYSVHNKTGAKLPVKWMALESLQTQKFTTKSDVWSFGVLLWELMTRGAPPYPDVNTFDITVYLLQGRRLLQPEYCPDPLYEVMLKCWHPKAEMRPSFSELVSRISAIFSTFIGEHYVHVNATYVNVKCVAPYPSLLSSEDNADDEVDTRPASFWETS
Assay: Phospho-c-Met AlphaLISA assay (c-Met agonist activity) in A431 cells
Format: cell-based
Conditions: 15 minutes of stimulation; for EC50: concentration of peptide showing 50% activity of the signal induced by HGF, A431 cells, read-out: C-Met Agonist Activity (C50; nM); for C-Met Agonist Activity (2 or 1): c-Met phosphorylation (Tyr1234/1235) in A431 cells, maximum signal induced by HGF = 100%
Description: To evaluate the activation potency (c-Met agonist activity) of c-Met of the peptide complex of the present invention, the phosphorylation of c-Met was verified. Human A431 cells were cultured in DMEM high glucose, GlutaMAX (registered trademark) Supplement, pyruvate (Thermo Fisher Scientific), containing 10% FBS (Gibco). After cells were detached using Accutase (Innovative cell technologies), they were seeded into a 96-well plate at 10000 cells per well and cultured overnight. The next day, for starvation, the culture medium was changed to DMEM high glucose, GlutaMAX (registered trademark) Supplement, pyruvate (Thermo Fisher Scientific), containing 0.1% BSA (Sigma-Aldrich), and the cells were cultured overnight. Then, the peptide complex synthesized in Example 3 or Recombinant Human HGF Protein (R&D systems) as a control was added, and after 15 minutes of stimulation, cells were lysed in a Lysis Buffer provided in the AlphaLISA (registered trademark) SureFire (registered trademark) Ultra™ Phospho-c-Met (Tyr1234/1235) kit (PerkinElmer). The assay was performed according to the kit protocol, and a SpectraMax (registered trademark) Paradigm (registered trademark) multimode microplate reader (Molecular Devices, LLC.) was used for signal detection. […] In the same manner, the C50 value was calculated by GraphPad Prism as the concentration of peptide showing 50% activity of the signal induced by HGF. […] Further, for a complex (GFs_c-Met-00014336-PEG13 dimer; complex no. 49 in Table 4) of a peptide (SEQ ID NO: 34) and a linker (SEQ ID NO: 37), a graph of c-Met agonist activity is shown in FIG. 1.

Row | EC50 [nM] | Compound | C-Met Agonist Activity (2 or 1)
1 | 2.37 | CCCCC[C@@H]1NC(=O)[C@H](CC(=O)O)NC(=O)[C@H](CC(=O)O)NC(=O)[C@H](CC(=O)O)NC(=O)[C@H](Cc2ccccc2)N(C)C(=O)[C@H](CO)NC(=O)[C@H](C(C)C)NC(=O)[C@H](Cc2ccc(O)cc2)NC(=O)[C@H](C(C)C)NC(=O)[C@H](Cc2ccccc2)N(C)C(=O)CSC[C@@H](C(=O)NCCOCCOCCOCCOCCOCCOCCOCCOCCOCCOCCOCCOCCC(=O)NCCCC[C@H](NC(=O)CCOCCOCCOCCOCCOCCOCCOCCOCCOCCOCCOCCOCCNC(=O)[C@@H]2CSCC(=O)N(C)[C@@H](Cc3ccccc3)C(=O)N[C@@H](C(C)C)C(=O)N[C@@H](Cc3ccc(O)cc3)C(=O)N[C@@H](C(C)C)C(=O)N[C@@H](CO)C(=O)N(C)[C@@H](Cc3ccccc3)C(=O)N[C@@H](CC(=O)O)C(=O)N[C@@H](CC(=O)O)C(=O)N[C@@H](CC(=O)O)C(=O)N[C@@H](CCCCC)C(=O)N3CCC[C@H]3C(=O)N[C@@H](CCCNC(=N)N)C(=O)N[C@@H](Cc3c[nH]c4ccccc34)C(=O)N[C@@H](C)C(=O)N2C)C(N)=O)N(C)C(=O)[C@H](C)NC(=O)[C@H](Cc2c[nH]c3ccccc23)NC(=O)[C@H](CCCNC(=N)N)NC(=O)[C@@H]2CCCN2C1=O [Peptide 22] (I: {CH2CO}-[NMeF]VYVS[NMeF]DDD[Ahp(2)]PRWA[NMeC][PEG12]K-NH2 / II: {CH2CO}-[NMeF]VYVS[NMeF]DDD[Ahp(2)]PRWA[NMeC][PEG12]; amide I:17-II:C; thioether I:N-I:15, II:N-II:15) | –
2 | 0.33 | CCCCC[C@@H]1NC(=O)[C@H](CC(=O)O)NC(=O)[C@H](CO)NC(=O)[C@H](CC(=O)O)NC(=O)[C@H](Cc2ccccc2)N(C)C(=O)[C@H](CO)NC(=O)[C@H](C(C)C)NC(=O)[C@H](C)NC(=O)[C@H]([C@@H](C)O)NC(=O)[C@H](Cc2ccccc2)N(C)C(=O)CSC[C@@H](C(=O)NCC(=O)N[C@@H](CCCCNC(=O)CCOCCOCCOCCOCCOCCOCCOCCOCCOCCC(=O)NCCCC[C@H](NC(=O)CNC(=O)[C@@H]2CSCC(=O)N(C)[C@@H](Cc3ccccc3)C(=O)N[C@@H]([C@@H](C)O)C(=O)N[C@@H](C)C(=O)N[C@@H](C(C)C)C(=O)N[C@@H](CO)C(=O)N(C)[C@@H](Cc3ccccc3)C(=O)N[C@@H](CC(=O)O)C(=O)N[C@@H](CO)C(=O)N[C@@H](CC(=O)O)C(=O)N[C@@H](CCCCC)C(=O)N3CCC[C@H]3C(=O)N[C@@H](CCCNC(=N)N)C(=O)N[C@@H](Cc3c[nH]c4ccccc34)C(=O)N[C@@H](C)C(=O)N2C)C(N)=O)C(N)=O)N(C)C(=O)[C@H](C)NC(=O)[C@H](Cc2c[nH]c3ccccc23)NC(=O)[C@H](CCCNC(=N)N)NC(=O)[C@@H]2CCCN2C1=O [Peptide 44] (I: {CH2CO}-[NMeF]TAVS[NMeF]DSD[Ahp(2)]PRWA[NMeC]GK-NH2 / II: {CH2CO}-[NMeF]TAVS[NMeF]DSD[Ahp(2)]PRWA[NMeC]GK-NH2; linker I:17-II:17 via CO(CH2CH2O)9CH2CH2CO (inferred); thioether I:N-I:15, II:N-II:15 (inferred)) | –
3 | – | 13 ({CH2CO}-[NMeF]VYVS[NMeF]DDD[Ahp′]PRWH[NMeC]; thioether N-15 (inferred); not fully specified; reading uncertain; also: conjugated moiety via linker) [Peptide 13] | 2 (those showing more than 50% activation were described as 2)
4 | – | 15 ({CH2CO}-[NMeF]VYVS[NMeF]DDD[Ahp′]PRWV[NMeC]; thioether N-15 (inferred); not fully specified; reading uncertain; also: conjugated moiety via linker) [Peptide 15] | 2 (those showing more than 50% activation were described as 2)
5 | – | 7 ({CH2CO}-[NMeF]VYVS[NMeF]DVD[Ahp′]PRWS[NMeC]; thioether N-15 (inferred); not fully specified; reading uncertain; also: conjugated moiety via linker) [Peptide 7] | 2 (those showing more than 50% activation were described as 2)
